The values that follow come from patent US8993719B2, “Methods and compositions related to mutant Kunitz domain I of TFPI-2” (The Regents of the University of California, priority 2005, dated 2015).

Where “and” joins values, the source holds several entries; their conditions need not be identical. Equal entries are not always repeated. Entries after “also recorded” stand apart in the source; their conditions may differ.

For test [1], the system named is mouse tail vein bleeding model. Description: Mouse tail vein bleeding model. The test is classed as in vivo. The following applies: intravenously, about 100 microgram/mouse, compared to saline control. An excerpt:
A mouse tail vein bleeding model has been described to study the efficacy of a snake plasmin inhibitor (Masci et al. Blood Coagulation and Fibrinolysis 2000, Vol 11, pages 385-393). […] The doses of the plasmin inhibitors used in these experiments were similar to that used during human CPB (cardiopulmonary bypass) surgery, adjusted to the mouse weight. The Animal Ethics Committee of UCLA approved all mice experiments and the dose used in human surgery adjusted to mouse weight was a realistic basis for these initial studies. The serum BUN/Creatinine levels were normal after two days and seven days following administration of the drug.

The target of test [2] is T1, Human plasmin (Homo sapiens, UniProt P00747).
T1 construct: purchased Enzyme research laborotories
T1 sequence (P00747 581-810 limits assumed): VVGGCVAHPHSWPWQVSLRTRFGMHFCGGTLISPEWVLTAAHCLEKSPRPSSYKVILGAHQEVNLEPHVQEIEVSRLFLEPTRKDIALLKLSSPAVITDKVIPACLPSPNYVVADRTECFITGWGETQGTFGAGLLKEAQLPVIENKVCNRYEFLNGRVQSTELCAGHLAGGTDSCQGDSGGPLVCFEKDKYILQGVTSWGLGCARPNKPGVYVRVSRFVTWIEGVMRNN
T1 sequence (P00747 97-580 partner limits assumed): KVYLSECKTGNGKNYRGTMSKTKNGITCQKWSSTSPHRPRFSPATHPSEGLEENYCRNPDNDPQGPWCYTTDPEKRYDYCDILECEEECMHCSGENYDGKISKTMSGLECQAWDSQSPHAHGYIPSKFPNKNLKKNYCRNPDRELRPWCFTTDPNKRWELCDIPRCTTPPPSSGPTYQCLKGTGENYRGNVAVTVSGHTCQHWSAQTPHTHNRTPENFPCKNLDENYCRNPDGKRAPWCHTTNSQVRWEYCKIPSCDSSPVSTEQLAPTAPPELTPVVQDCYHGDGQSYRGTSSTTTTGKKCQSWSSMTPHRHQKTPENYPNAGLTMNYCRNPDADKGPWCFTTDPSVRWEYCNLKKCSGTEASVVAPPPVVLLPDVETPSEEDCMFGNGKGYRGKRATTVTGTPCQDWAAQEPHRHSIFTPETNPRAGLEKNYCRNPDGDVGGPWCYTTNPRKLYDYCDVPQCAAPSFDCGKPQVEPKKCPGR
The experiment in a line: Plasmin inhibition assay (residual amidolytic activity, chromogenic substrate S-2251). It counts as biochemical. The following applies: for fold stronger binding to plasmin than WT KD1: relative to WT KD1. From the text:
Materials and methods: The chromogenic substrates H-D-Val-Leu-Lys-p-nitroanilide (S-2251) was purchased from DiaPharma Group Inc. (West Chester, Ohio). Human plasmin was purchased from Enzyme research laborotories. Bovine aprotinin (BPTI) was used from Zymogenetics. Escherichia coli strain BL21(DE3)pLys and pET28a expression vector were products of Novagen Inc. (Madison, Wis.). The QuikChange® site-directed mutagenesis kit was obtained from Stratagene (La Jolla, Calif.).
(§1) Plasmin Inhibition Assays. […] The chromogenic substrate S-2251 was then added, and residual amidolytic activity was measured in a Molecular Devices UVmax kinetic microplate reader at different end points (0.5 and 1 hr) and S2251 (0.5 and 1 mM) concentrations. Plasmin inhibitory data were analyzed according to the quadratic binding expression.

Test [3] deals with T2, Human plasmin (human, UniProt P00747 97-810, limits assumed).
T2 construct: Bought enzyme
T2 sequence (P00747 97-810 limits assumed): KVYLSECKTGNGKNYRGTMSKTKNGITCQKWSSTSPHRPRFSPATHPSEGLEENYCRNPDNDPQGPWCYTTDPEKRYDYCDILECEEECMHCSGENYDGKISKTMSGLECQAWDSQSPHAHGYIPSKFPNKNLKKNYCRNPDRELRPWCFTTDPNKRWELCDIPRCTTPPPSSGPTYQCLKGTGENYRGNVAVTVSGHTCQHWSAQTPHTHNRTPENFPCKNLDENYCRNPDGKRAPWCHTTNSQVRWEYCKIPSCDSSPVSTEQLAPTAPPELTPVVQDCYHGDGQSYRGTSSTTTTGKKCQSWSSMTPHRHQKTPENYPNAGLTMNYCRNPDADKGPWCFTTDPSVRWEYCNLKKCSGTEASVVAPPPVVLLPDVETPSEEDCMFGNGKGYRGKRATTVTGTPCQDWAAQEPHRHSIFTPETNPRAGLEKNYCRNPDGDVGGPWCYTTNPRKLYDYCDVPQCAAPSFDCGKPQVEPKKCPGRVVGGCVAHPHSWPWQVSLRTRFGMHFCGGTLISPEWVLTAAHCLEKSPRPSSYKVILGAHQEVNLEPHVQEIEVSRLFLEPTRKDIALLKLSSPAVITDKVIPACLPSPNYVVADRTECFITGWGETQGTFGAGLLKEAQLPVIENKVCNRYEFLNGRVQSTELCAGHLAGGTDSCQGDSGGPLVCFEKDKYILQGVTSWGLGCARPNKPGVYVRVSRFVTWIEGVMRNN
Description: plasmin inhibition assay, residual amidolytic activity on S-2251. The procedure:
as §1
In control experiments, it was first studied if there was any substrate-induced displacement of bound inhibitor by increasing substrate concentrations.

Test [4] deals with mouse plasmin (Mus musculus, UniProt P20918). Description: Mouse plasmin inhibition. It counts as biochemical. The following applies: 1 μM inhibitor; FIG. 6. An excerpt:
Both WT KD1 and L26R inhibited mouse plasmin effectively. […] Since both the wild-type and the mutant inhibit mouse plasmin, one can use the mutant to show efficacy in vivo in an animal model of bleeding.

Test [5] addresses T2, Human plasmin. The experiment in a line: plasmin inhibition assay, residual amidolytic activity on S-2251, quadratic binding fit. On the procedure: as §1
(§2) The incubation time was 1 hr at 37° C. and substrate concentration was 1 mM for the remaining activity measurements.

The target in another test is kallikrein (Homo sapiens, UniProt P03952). The conditions noted are these: Petersen et al 1996; cited from earlier work.
Sequence of kallikrein (P03952 391-638 limits assumed): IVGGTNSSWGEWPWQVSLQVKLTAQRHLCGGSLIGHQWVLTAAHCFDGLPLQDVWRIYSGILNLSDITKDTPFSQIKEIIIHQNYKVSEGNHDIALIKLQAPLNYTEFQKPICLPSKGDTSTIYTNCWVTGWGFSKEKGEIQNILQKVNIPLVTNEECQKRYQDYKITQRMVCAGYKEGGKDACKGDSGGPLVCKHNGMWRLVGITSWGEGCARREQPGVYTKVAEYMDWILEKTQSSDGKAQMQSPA
Sequence of kallikrein (P03952 20-390 partner limits assumed): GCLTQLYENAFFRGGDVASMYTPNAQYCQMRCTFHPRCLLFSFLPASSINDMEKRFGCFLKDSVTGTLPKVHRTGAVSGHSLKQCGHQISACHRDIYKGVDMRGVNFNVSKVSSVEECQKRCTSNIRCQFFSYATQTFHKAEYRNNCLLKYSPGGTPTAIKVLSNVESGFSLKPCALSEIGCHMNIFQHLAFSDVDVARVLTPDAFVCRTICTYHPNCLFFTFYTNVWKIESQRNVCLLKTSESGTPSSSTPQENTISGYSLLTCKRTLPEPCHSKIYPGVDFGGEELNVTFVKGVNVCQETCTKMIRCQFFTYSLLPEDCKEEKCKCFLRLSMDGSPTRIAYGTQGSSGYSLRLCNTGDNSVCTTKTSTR
In the next test the target is factor XIa (Homo sapiens, UniProt P03951). The following applies: Petersen et al 1996; cited from earlier work.
Sequence of factor XIa (P03951 388-625 limits assumed): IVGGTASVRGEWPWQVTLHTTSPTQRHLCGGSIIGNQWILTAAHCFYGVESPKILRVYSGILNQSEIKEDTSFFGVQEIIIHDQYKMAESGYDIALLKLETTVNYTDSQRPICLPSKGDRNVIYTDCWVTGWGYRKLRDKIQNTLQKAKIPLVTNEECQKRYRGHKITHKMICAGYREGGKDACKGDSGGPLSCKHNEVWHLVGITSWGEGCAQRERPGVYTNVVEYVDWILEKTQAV
Sequence of factor XIa (P03951 19-387 partner limits assumed): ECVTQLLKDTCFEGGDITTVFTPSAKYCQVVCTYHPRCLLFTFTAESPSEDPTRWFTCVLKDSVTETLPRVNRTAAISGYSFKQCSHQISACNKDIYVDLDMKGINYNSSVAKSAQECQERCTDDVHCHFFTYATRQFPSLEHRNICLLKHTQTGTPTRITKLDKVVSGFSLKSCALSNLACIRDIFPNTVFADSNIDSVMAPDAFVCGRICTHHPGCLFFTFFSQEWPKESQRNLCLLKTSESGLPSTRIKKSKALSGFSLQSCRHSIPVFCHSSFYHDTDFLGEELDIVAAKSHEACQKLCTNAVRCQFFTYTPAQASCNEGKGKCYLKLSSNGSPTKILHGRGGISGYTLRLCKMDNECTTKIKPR
Test [6] deals with Mouse plasmin (mouse, UniProt P20918 98-812, limits assumed). Description: mouse plasmin inhibition assay.
Sequence of Mouse plasmin (P20918 98-812 limits assumed): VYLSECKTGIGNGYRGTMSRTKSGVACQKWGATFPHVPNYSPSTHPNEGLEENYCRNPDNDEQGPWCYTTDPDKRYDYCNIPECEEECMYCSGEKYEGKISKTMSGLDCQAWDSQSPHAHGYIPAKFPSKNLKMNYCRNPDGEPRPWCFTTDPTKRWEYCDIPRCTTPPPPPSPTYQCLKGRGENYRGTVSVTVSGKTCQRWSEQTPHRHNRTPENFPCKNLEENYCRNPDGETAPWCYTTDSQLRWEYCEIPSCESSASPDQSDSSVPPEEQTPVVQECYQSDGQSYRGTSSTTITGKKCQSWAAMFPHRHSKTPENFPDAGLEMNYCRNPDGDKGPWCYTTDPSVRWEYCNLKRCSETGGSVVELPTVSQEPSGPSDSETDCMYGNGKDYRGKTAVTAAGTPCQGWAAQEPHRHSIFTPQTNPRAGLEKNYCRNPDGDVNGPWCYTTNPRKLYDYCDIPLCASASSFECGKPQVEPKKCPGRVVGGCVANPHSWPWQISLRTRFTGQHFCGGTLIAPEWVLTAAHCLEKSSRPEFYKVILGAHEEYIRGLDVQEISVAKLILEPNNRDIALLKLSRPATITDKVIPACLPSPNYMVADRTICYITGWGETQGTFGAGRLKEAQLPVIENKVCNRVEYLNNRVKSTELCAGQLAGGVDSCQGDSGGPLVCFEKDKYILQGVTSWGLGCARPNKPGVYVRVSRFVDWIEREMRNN
Test [7] concerns intrinsic pathway of blood coagulation. The experiment in a line: aPTT (activated partial thromboplastin time) of normal plasma. It counts as biochemical. The conditions noted are these: normal human plasma, 5 min at 37° C., FIG. 5. On the procedure:
Seventy-five microliter of 25 mM CaCl2 prewarmed to 37° C. was then added and the time needed to form the clot through the intrinsic pathway of blood coagulation was noted.
A common procedure to test inhibition of clotting is to examine the aPTT (activated partial thromboplastin time) of normal plasma. In this test, surface activator plus phospholipid was mixed with normal plasma in equal amounts (75 microliter). […] Seventy-five microliter of 25 mM CaCl2 prewarmed to 37° C. was then added and the time needed to form the clot was noted.
In the aPTT system, coagulation is initiated by the activation of factor XII to Factor XIIa by contact phase involving the kallikrein system. Factor XIIa then activates factor XI to factor XIa in the coagulation cascade.

For test [8], the target named is T2, Human plasmin. The experiment in a line: plasmin inhibition assay, 1 hr at 37° C., 1 mM S-2251. The procedure: as §1, §2

Sequence of mouse plasmin (P20918 582-812 limits assumed): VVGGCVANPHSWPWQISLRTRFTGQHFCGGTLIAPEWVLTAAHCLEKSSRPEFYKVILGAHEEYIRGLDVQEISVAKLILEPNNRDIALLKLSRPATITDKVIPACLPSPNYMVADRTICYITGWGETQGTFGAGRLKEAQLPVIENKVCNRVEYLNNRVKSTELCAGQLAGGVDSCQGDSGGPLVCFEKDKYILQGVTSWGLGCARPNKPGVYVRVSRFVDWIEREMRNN
Sequence of mouse plasmin (P20918 98-581 partner limits assumed): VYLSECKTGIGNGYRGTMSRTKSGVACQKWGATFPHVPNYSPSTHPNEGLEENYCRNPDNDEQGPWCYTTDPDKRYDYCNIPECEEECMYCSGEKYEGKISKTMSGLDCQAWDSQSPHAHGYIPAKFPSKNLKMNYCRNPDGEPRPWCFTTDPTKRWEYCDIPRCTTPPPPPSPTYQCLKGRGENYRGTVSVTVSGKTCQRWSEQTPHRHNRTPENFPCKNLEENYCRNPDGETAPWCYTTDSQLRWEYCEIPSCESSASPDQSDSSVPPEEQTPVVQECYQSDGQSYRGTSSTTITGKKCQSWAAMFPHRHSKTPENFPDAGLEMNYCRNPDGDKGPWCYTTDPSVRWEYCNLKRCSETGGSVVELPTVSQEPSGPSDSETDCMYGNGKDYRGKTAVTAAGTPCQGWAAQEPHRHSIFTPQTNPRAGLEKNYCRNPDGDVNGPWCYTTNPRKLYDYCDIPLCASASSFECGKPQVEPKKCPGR

B1: Wild type first Kunitz-type proteinase inhibitor domain of human TFPI-2 (KD1) (other)
chain: DAAQEPTGNNAEICLLPLDYGPCRALLLRYYYDRYTQSCRQFLYGGCEGNANNFYTWEACDDACWRIEKVPKV
notes: also called WTKD1; WT KD1
With B1, the “reduction in blood loss” value in test [1] was 67-70%. Moreover, the “substrate-induced displacement of bound inhibitor” value with Human plasmin [2] (increasing S-2251 concentration (0.5 and 1 mM)) is reported as “apparently no displacement of bound inhibitor; also recorded: not any significant substrate induced displacement of inhibitor”. Also, the affinity with Human plasmin [3] corresponds to a Ki of 22 nM. The “inhibition of mouse plasmin at 1 μM” value in the test with mouse plasmin [4] is listed as “Complete inhibition”. For the same molecule, the Kd (as a rule, the free concentration of one partner at which half of the binding sites on the other are occupied at equilibrium, for simple one-to-one binding) in the test with Human plasmin [5] was 22 nM; with Mouse plasmin [6], around 80 nM. In addition, in the test with kallikrein, the inhibition of kallikrein entry is “inhibits both kallikrein and factor XIa”. Moreover, the “inhibition of factor XIa” value with factor XIa was “inhibits both kallikrein and factor XIa”. Also, in [7] (listed as KD1 WT), the “inhibition of intrinsic pathway of coagulation (prolongation of aPTT clotting time)” value is given as “prolongation of the aPTT; also recorded: inhibit the intrinsic pathway of coagulation”.

B2: KD1 R15K/L17R double mutant (R24K/L26R in KD1 numbering) (other)
chain: DAAQEPTGNNAEICLLPLDYGPCKARLLRYYYDRYTQSCRQFLYGGCEGNANNFYTWEACDDACWRIEKVPKV
notes: Made from KD1 by site-directed mutagenesis, with the His tag removed
As to B2, in the test with Human plasmin [3], the Ki (usually a dissociation constant, usually derived from enzyme kinetics or from competition with a known ligand) turned out to be 3 nM; the “fold stronger binding than WT KD1” value came out at 7 fold; the “fold stronger binding than the R15K mutant” value was around 2 fold. This molecule yielded a dissociation constant (Kd) with Human plasmin [8] of 3 nM.

B3: KD1 R15K mutant (R24K in KD1 numbering) (other)
chain: DAAQEPTGNNAEICLLPLDYGPCKALLLRYYYDRYTQSCRQFLYGGCEGNANNFYTWEACDDACWRIEKVPKV
notes: Made from KD1 by site-directed mutagenesis, with the His tag removed; also called R24K mutant
Regarding B3, the “fold stronger binding to plasmin than WT KD1” value with Human plasmin [2] is reported as “two-fold different”. This molecule also yielded a Ki with Human plasmin [3] of 10 nM. In the test with Human plasmin [8], the Kd is 9 to 11 nM and 10 nM; the “fold difference of Kd against WT KD1” value was found to be 2 fold.

B4: KD1 L17R mutant (L26R in KD1 numbering) (other)
chain: DAAQEPTGNNAEICLLPLDYGPCRARLLRYYYDRYTQSCRQFLYGGCEGNANNFYTWEACDDACWRIEKVPKV
notes: The His tag was removed; also called KD1 L26R; L26R KD1
In the case of B4, the “reduction in blood loss” value in test [1] is given as 67-70%. Further, in the test with Human plasmin [2] (listed as L17R), the “fold stronger binding to plasmin than WT KD1” value is “approximately 4 fold”. Also, in the test with Human plasmin [3], affinity was put at a Ki of 6 nM and the “fold stronger binding than WT KD1” value is around 4 fold. Besides, in the test with mouse plasmin [4], the “inhibition of mouse plasmin at 1 μM” value is “Complete inhibition”. The Kd with Mouse plasmin [6] was around 80 nM. In addition, the “inhibition of intrinsic pathway of coagulation (prolongation of aPTT clotting time)” value in [7] is “no inhibition (prolongation) of aPTT; also recorded: loses activity as an anticoagulant; also recorded: ineffective”. Further, the “inhibition of intrinsic pathway of coagulation (prolongation of aPTT clotting time)” value in [7] (listed as L26R KD1) is “no effect on clotting”.
